Source: publication PMC7643339
Positions count from the first letter of the chain named.

What was measured:
[1] = biological target: mouse TLR9 ectodomain, uncleaved (without proteolytic activation) (mouse) (UniProt Q9EQU3); assay: SEC; Superdex 200 10/300, 10 mM Tris pH 7.4, 0.15 M NaCl, no oligonucleotide; last step of the purification
[2] = biological target: T1, mTLR9-ECD, uncleaved (mouse, UniProt Q9EQU3 26-818); assay: fluorescence anisotropy; 1:1 fit; uncleaved; Anisotropy: 2 or 5 nM Alexa 488 oligo, protein to 100 nM; competition in 10 mM MES pH 6.0, 0.15 M NaCl, room temperature (direct titration buffer not separately)
T1 sequence: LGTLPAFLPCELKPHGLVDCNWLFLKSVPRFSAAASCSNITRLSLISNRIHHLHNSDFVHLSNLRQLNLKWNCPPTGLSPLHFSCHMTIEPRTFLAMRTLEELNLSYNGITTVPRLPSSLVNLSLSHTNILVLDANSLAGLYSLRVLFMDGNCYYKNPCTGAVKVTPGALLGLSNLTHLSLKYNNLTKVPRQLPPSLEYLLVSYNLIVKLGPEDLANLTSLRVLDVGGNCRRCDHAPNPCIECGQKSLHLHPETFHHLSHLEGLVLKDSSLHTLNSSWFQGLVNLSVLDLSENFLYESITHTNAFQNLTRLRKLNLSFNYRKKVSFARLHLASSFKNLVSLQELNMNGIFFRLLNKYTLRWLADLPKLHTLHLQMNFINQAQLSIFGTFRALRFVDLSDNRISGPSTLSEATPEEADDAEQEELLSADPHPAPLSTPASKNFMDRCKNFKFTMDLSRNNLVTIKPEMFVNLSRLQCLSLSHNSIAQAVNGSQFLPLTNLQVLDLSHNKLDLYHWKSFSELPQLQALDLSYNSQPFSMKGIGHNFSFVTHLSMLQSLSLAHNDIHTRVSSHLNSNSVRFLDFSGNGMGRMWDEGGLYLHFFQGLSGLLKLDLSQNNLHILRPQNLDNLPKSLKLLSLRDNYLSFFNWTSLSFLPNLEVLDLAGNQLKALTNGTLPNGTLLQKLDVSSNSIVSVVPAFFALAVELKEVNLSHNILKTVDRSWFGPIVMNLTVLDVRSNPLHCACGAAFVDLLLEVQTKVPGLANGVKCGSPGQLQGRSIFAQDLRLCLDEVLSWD

[3] = biological target: T2, mTLR9-ECD E617A/H642A (site B mutant) (mouse, UniProt Q9EQU3 26-818, E617A;H642A); assay: fluorescence anisotropy; 1:1 fit; reports site A (KA); Anisotropy: 2 or 5 nM Alexa 488 oligo, protein to 100 nM; competition in 10 mM MES pH 6.0, 0.15 M NaCl, room temperature (direct titration buffer not separately)
T2 sequence: T1 sequence with E592A, H617A

[4] = biological target: T3, mTLR9-ECD, GluC-cleaved (mouse, UniProt Q9EQU3 26-818); assay: fluorescence anisotropy; apparent, 1:1 fit; Anisotropy: 2 or 5 nM Alexa 488 oligo, protein to 100 nM; competition in 10 mM MES pH 6.0, 0.15 M NaCl, room temperature (direct titration buffer not separately)
T3 sequence: T1 sequence

[5] = biological target: T3, mTLR9-ECD, GluC-cleaved; assay: competition; vs Alexa 488 1668-12mer; Anisotropy: 2 or 5 nM Alexa 488 oligo, protein to 100 nM; competition in 10 mM MES pH 6.0, 0.15 M NaCl, room temperature (direct titration buffer not separately)
[6] = biological target: T3, mTLR9-ECD, GluC-cleaved; assay: competition; Cheng-Prusoff; vs Alexa 488 1668-12mer; Anisotropy: 2 or 5 nM Alexa 488 oligo, protein to 100 nM; competition in 10 mM MES pH 6.0, 0.15 M NaCl, room temperature (direct titration buffer not separately)
[7] = biological target: T3, mTLR9-ECD, GluC-cleaved; assay: fluorescence anisotropy; 1:1 fit; Anisotropy: 2 or 5 nM Alexa 488 oligo, protein to 100 nM; competition in 10 mM MES pH 6.0, 0.15 M NaCl, room temperature (direct titration buffer not separately)
[8] = biological target: T3, mTLR9-ECD, GluC-cleaved; assay: fluorescence anisotropy; apparent, 1:1 fit; SI text gives 9.2 nM; Anisotropy: 2 or 5 nM Alexa 488 oligo, protein to 100 nM; competition in 10 mM MES pH 6.0, 0.15 M NaCl, room temperature (direct titration buffer not separately)
[9] = biological target: T4, mTLR9-ECD W96A/Y132A (site A mutant) (mouse, UniProt Q9EQU3 26-818, W96A;Y132A); assay: mass photometry; a fraction dimerizes with ligand; Anisotropy: 2 or 5 nM Alexa 488 oligo, protein to 100 nM; competition in 10 mM MES pH 6.0, 0.15 M NaCl, room temperature (direct titration buffer not separately)
T4 sequence: T1 sequence with W71A, Y107A

mouse TLR9 ectodomain, uncleaved (without proteolytic activation) (from UniProt Q9EQU3 26-818) (domain or fragment)
stoichiometry N [1]: 2

TCCATGACGTTCCTGATGCT (ssDNA) [1668 (Alexa 488)]
Kd [2]: 12 nM
Kd [3]: 40 nM
Kd [4]: 2.8 nM

CATGACGTTCCT (ssDNA) [1668-12mer, unlabeled]
IC50 [5]: ~10 nM
Ki [6]: 8 nM

CCTGGATGGGAA (ssDNA) [4084 (printed 4048 in Table 1; Alexa 488)]
Kd [7]: 29 nM

TCCTTTCGTTTTTTTTTTTTTTT (ssDNA) [minM (Alexa 488)]
Kd [4]: 3.2 nM

CATGACGTTCCT (ssDNA) [1668-12mer (Alexa 488)]
Kd [8]: 11 nM

TCCATGACGTTCCTGATGCT (ssDNA) [1668, unlabeled]
binding result [9]: binds
